# Data: the supplement of paper PMC9170038
# Test system: MS2 coat protein
# Experiment: apparent KD of MS2 coat protein; designed switch direction (-1 OFF switch, 1 ON switch): -1; higher = weaker reporter binding
# Method in brief: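 Apparent KD, taken as the median over clusters for each design, was obtained by curve-fitting normalised cluster fluorescence. Designed RNA switches had been transcribed on Illumina chips by stalled E. coli RNA polymerase and titrated with SNAP-549-labelled MS2 coat protein, doubling from 0.7 or 1.5 nM to 3 µM.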
# [1] = input ligand: microRNA oligo, concentration not stated
# [2] = Eterna round: R95, input ligand: FMN 200 uM
# [3] = Eterna round: R95, input ligand: microRNA oligo, concentration not stated
# [4] = Eterna round: R95, input ligand: none
Sequence,apparent KD of MS2 coat protein (input ligand: FMN 200 uM) [nM],apparent KD of MS2 coat protein [1] [nM],apparent KD of MS2 coat protein (input ligand: none) [nM],apparent KD of MS2 coat protein [2] [nM],apparent KD of MS2 coat protein [3] [nM],apparent KD of MS2 coat protein [4] [nM]
"AAAGUAGACCUUGAAGCAUCGUAAACAUGAGGAUCACCCAUGUAGGAUAUGGGUAGCUAUGCUAGCCAGAAGGAUGUGUGGUGA [Eternabot solution 16] (Eterna round: R96, puzzle: Exclusion NG 3)",335,39,54.4,–,–,–
GCCGAGUGAGGAUAUACAUGAGGAUCACCCAUGUAAACACGAAAGCAAGUGUCCCUCAGUAGAAGGCGCCAGGA [Xeanonis] (puzzle: Exclusion 3),–,–,–,18.2,13.9,14
"AAGGGUACUUUCGGAACGACAUGAGGAUCACCCAUGUAUACUGAGGAUAUCUACUACUAAGGACGGGAGAAGGCAGUGUAAUGU [Ex NG3 #77] (Eterna round: R96, puzzle: Exclusion NG 3)",–,13.6,–,–,–,–
CGUGACUGAGGAUAUCUAUGGUAUCACAUGAGGAUCACCCAUGUCCAGCGAAAGCUGGAGGGAGAAGGCAGUCACG [Fiskers Ex 5 - 32] (puzzle: Exclusion 5),–,–,–,117,186,250
GAAGAGACAGGAUAUACAUGAGGAUCACCCAUGUGAGUAAGGUAGAGGCGGAGGAGAUGUAGAAGGGUCAAAGA [JR_Exclu3_Sub016] (puzzle: Exclusion 3),–,–,–,49.9,35.6,41.5
"UAACUUAUUGUAAGGAUAUCGGUCCGAAAGGACAACGAGAAGGUACAUGAGGAUCACCCAUGUGAAAUAAGAAU [Mod of Zala 21 - Jieux - Brourd's Mod of Exclusion 4] (Eterna round: R97, puzzle: Brourd's mod of Exclusion 4)",261,–,29.4,–,–,–
"GUUGUUUAUGUAGGAUAUGCCUGGCGUGCCUAUGCAGAAGGACAUGAGGAUCACCCAUGUAUUGCGGUCUGCGUUCAGAUCGCU [salish99_ExNG1_r4_020] (Eterna round: R96, puzzle: Exclusion NG 1)",23.2,15.8,22,–,–,–
GUGUACAGAGGAUAUACUUAUGGAGUCACGAAAGUGGCUUCACAUGAGGAUCACCCAUGUAGAAGGCUGUACAC [Dot plot directed v11] (puzzle: Exclusion 2),–,–,–,–,23.7,–
"AACCUGGCUGUUCACAGGAACAUGAGGAUCACCCAUGUCGUGGGUAGAUCCCUCCCUGGGAAAUCUGCUCGUCUUAU [Cac Sensor turn off v1 sub13] (Eterna round: R97, puzzle: Sensor, turn-off variant 1)",34.6,–,34.2,–,–,–
UGUGUUUUUGUGAGGAUAUACUGUUUGUUUUGUUUGUAGAAGGUACAUGAGGAUCACCCAUGUUGUGUUUGGUU [JR_BME4_Sub032] (puzzle: Brourd's mod of Exclusion 4),–,–,–,–,30.9,–
"CCCUGACAUGAGGAUCACCCAUGUUAGGAUAUAACAUUUGACGCGACAGUGUGGAGUGUUAGAAGGGAUAUGGG [-28.4, -26.7 kcal, A 28%] (Eterna round: R97, puzzle: Exclusion 1)",29.9,–,20.8,–,–,–
CUGGUCCGAGGAUAUAUUAAGUGAAACAUGAGGAUCACCCAUGUUAUUUGAUGGAAGAAAAUAGAAGGCGGACUAG [Mat - Exclusion 5 - JL mod - D59] (puzzle: Exclusion 5),–,–,–,29.9,86.9,62.5
GUCAUACAUGAGGAUCACCCAUGUAAGGAUAUGCUAGCGGUCGGAAGACUGACUGCUAGCAGAAGGUACAUGAU [Mat - Mod of JL D80] (puzzle: Exclusion 1),–,–,–,–,61.5,–
"CUGUUUUUCGCAGGAUAUGCUCCUCCAUUAUUUGCAGAAGGGCGUUAAACAUGAGGAUCACCCAUGUAUGGUAAUGACUAUUUC [JR_ExcNG1_Sub065] (Eterna round: R96, puzzle: Exclusion NG 1)",125,43.6,40.7,–,–,–
"CUAGCGAUUGUAGGAUAUCGGACUGUUUCAGUCUGAGAAGGACAUGAGGAUCACCCAUGUGAAGGAUCGUGAGAUCCACGCUAG [JL ENG1 3.79] (Eterna round: R96, puzzle: Exclusion NG 1)",112,17.9,22,–,–,–
GAAAAGGUAGGAUAUACGAAAAAAAAGGGUAGAAAAAUAACACAUGAGGAUCACCCAUGUAGAAGGACCAAAAG [salish99_ex2_r3_074] (puzzle: Exclusion 2),–,–,–,111,23,29
"UUGUAGUCAGGAUAUACAUGAGGAUCACCCAUGUAAAAUUUUAAUUUAAUUUGAAGGUGUAGAAGGGACCAGUU [Ex3 #24] (Eterna round: R97, puzzle: Exclusion 3)",36.5,–,43.4,–,–,–
"CGUGACUCAGGAUAUCUAUAGUAUCACAUGAGGAUCACCCAUGUCCAGCGAAAGCUGGAGGGAGAAGGGAGUCACG [Fiskers Ex 5 - 42] (Eterna round: R96, puzzle: Exclusion 5)",74.1,230,188,–,–,–
"GCACGACAUCAGGAUAUGACUAGCUUCGGCUAGUCAGAAGGGAUGACAUGAGGAUCACCCAUGUGAUCACGUGC [E6/2-B1] (Eterna round: R97, puzzle: Exclusion 6)",122,–,91.8,–,–,–
"GAAGUCGACUAGGAUAUUACAGGCUCAUGCCGUUGAGAAGGAGUGACAUGAGGAUCACCCAUGUCCUCAAGCGC [Eternabot (Original) Solution 48] (Eterna round: R97, puzzle: Exclusion 6)",20.3,–,16.2,–,–,–
"UCCCAGCUAGGAUAUACAUGAGGAUCACCCAUGUCGAUCCACGGCACCCGAGUAUUGAGUAGAAGGAGUCAGGA [Eternabot (L2) Solution 69] (Eterna round: R97, puzzle: Exclusion 3)",25.1,–,23.1,–,–,–
"UAUUAGCAAGUGAGAUCCGACAUGAGGAUCACCCAUGUGCUCGUCUUAUAAGGUAAUAUAAGAAAACUUAUAUUACC [Elimod 6 - Jieux - Sensor, turn-off variant 1] (Eterna round: R97, puzzle: Sensor, turn-off variant 1)",207,–,233,–,–,–
"CAUUAUGUUGAGGAUAUGCGCCGGCUCGCUGACGCAGAAGGCGACACAUGAGGAUCACCCAUGUCAGUUCGCGA [salish99_ex6_r004_420] (Eterna round: R97, puzzle: Exclusion 6)",15.8,–,14.5,–,–,–
"UCUUUGUUUGUGAGGAUAUCGGUGGAAUGGAUUGUCGAGAAGGCACAUGAGGAUCACCCAUGUGUGGGACAGCA [JR_BMEx4_Sub026] (Eterna round: R97, puzzle: Brourd's mod of Exclusion 4)",24.3,–,22.3,–,–,–
"CUCGUGCAGCAAAGCUGUACGAGUACAUGAGGAUCACCCAUGUAGGAUAUGGUACGCAAAGCGUGCCAGAAGGACGUGAGUUAG [Mat - Exclusion NG 3 - Mod of JL - D95] (Eterna round: R96, puzzle: Exclusion NG 3)",171,37.6,59,–,–,–
